The values that follow come from publication PMC5371819, “Structural intermediates and directionality of the swiveling motion of Pyruvate Phosphate Dikinase” (Scientific Reports, 2017).

This data set concerns the molecule itself. The experiment in a line: crystal structure; FtPPDK 10 mg/mL co-crystallized with 20 mM PEP and 10 mM NADH, microbatch, 17% PEG 3350, 100 mM MOPS pH 7, 100 mM magnesium formate, 21 °C; PDB 5JVJ, two monomers in the ASU.

B1: Pyruvate phosphate dikinase from Flaveria trinervia (C4-isoform) (enzyme, UniProt P22221 78-953, looked up)
chain: TAKKRVFTFGKGRSEGNRDMKSLLGGKGANLAEMSSIGLSVPPGLTISTEACEEYQQNGKSLPPGLWDEISEGLDYVQKEMSASLGDPSKPLLLSVRSGAAISMPGMMDTVLNLGLNDEVVAGLAGKSGARFAYDSYRRFLDMFGNVVMGIPHSLFDEKLEQMKAEKGIHLDTDLTAADLKDLVEKYKNVYVEAKGEKFPTDPKKQLELAVNAVFDSWDSPRANKYRSINQITGLKGTAVNIQSMVFGNMGNTSGTGVLFTRNPSTGEKKLYGEFLINAQGEDVVAGIRTPEDLGTMETCMPEAYKELVENCEILERHYKDMMDIEFTVQENRLWMLQCRTGKRTGKGAVRIAVDMVNEGLIDTRTAIKRVETQHLDQLLHPQFEDPSAYKSHVVATGLPASPGAAVGQVCFSAEDAETWHAQGKSAILVRTETSPEDVGGMHAAAGILTARGGMTSHAAVVARGWGKCCVSGCADIRVNDDMKIFTIGDRVIKEGDWLSLNGTTGEVILGKQLLAPPAMSNDLEIFMSWADQARRLKVMANADTPNDALTARNNGAQGIGLCRTEHMFFASDERIKAVRKMIMAVTPEQRKVALDLLLPYQRSDFEGIFRAMDGLPVTIRLLDPPLHEFLPEGDLEHIVNELAVDTGMSADEIYSKIENLSEVNPMLGFRGCRLGISYPELTEMQVRAIFQAAVSMTNQGVTVIPEIMVPLVGTPQELRHQISVIRGVAANVFAEMGVTLEYKVGTMIEIPRAALIAEEIGKEADFFSFGTNDLTQMTFGYSRDDVGKFLQIYLAQGILQHDPFEVIDQKGVGQLIKMATEKGRAANPSLKVGICGEHGGEPSSVAFFDGVGLDYVSCSPFRVPIARLAAAQVIV
notes: domains NBD aa 1-340, CD aa 380-515, PBD aa 535-874; Cloned into pET-16b with a histidine10 tag and a TEV site; Co-crystallized with PEP and NADH (5JVJ) or PEP and 2'-Br-dAppNHp (5JVL); also called FtPPDK; C4-PPDK
For B1, the binding result is “binds”.
